Experimental data published in KR20200019669A.

Experiments:
[1] = target: his 태그가 부착된 재조합 인간 CD38 (recombinant human CD38 extracellular domain, His-tagged) (human) (UniProt P28907); assay: ForteBio (BLI), 1:1 fit
[2] = target: 인간 CD38 (human CD38, full length, on cells) (human) (UniProt P28907); assay: cell-based or functional assay

Row | Substance | Kd [1] | CD38 시클라제 활성 억제 [2]
1 | IB4 (antibody) | 9 nM | 
2 | 다라투무맙 (daratumumab) (antibody) |  | 70%
